7 molecules from paper PMC2841500 (Biochemical Journal, 2010) can be followed below.

Series [1] deals with the molecule itself. In words: pulsed ESR.
Series [2] deals with T1, Alba1 (Sso10b) (Sulfolobus solfataricus, UniProt P60849 1-97).
T1 sequence: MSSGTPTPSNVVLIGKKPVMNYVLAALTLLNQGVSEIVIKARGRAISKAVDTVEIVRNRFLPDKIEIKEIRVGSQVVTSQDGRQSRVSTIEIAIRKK
Kind of series: EMSA. On the technique in general: A gel shift assay detects complexes by their altered migration in electrophoresis.

Series [3] has as its target T1, Alba1 (Sso10b). Kind of series: EMSA. The source holds these as a separate data set.
The target in series [4] is T2, Alba1 F60A (Sulfolobus solfataricus, UniProt P60849 1-97, F60A).
T2 sequence: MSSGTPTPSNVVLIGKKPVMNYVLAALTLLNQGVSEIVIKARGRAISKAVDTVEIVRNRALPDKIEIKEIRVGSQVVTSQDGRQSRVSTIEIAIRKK
In words: EMSA.

In series [5] the target is T1, Alba1 (Sso10b). Kind of series: EMSA. This is another data set of the same source.
Series [6] concerns the target T2, Alba1 F60A. In words: EMSA. The source holds these as a separate data set.
The target of series [7] is T1, Alba1 (Sso10b). In words: EMSA. This is another data set of the same source.

Like-named read-outs stand apart in the source and are kept apart here.

B1: spin-labelled Alba R59C (S. solfataricus Alba1 R59C modified with MTSSL) (natural protein, Sulfolobus solfataricus, UniProt P60849 1-97, looked up)
chain: MSSGTPTPSNVVLIGKKPVMNYVLAALTLLNQGVSEIVIKARGRAISKAVDTVEIVRNCFLPDKIEIKEIRVGSQVVTSQDGRQSRVSTIEIAIRKK
modifications: methanethiosulfonate spin label MTSSL on the cysteine at position 59
For the molecule B1, the binding result in series [1] was “binds”.
The Kd is a measure of binding affinity in units of concentration. Low values mean a tighter complex, high ones a looser complex. With CCCGGCGUGCGGCCCG (ssRNA) [16 mer ssRNA], the Kd in series [2] was found to be 920 ± 69 nM.
In series [3], AAAAAAAAAAAAAAAAAAAAAAAAAAAA (ssRNA) [28A] displayed a Kd of 960 ± 30 nM.

B2: 39 bp duplex (dsDNA)
DNA 1: CCTCGGTGCTAAGTTGATGCTGGTACTCGGAGTATCCCG
DNA 2: CGGGATACTCCGAGTACCAGCATCAACTTAGCACCGAGG
Turning to B2, the Kd in series [4] was determined as 520 ± 13 nM.
Molecule CCTCGGTGCTAAGTTGATGCTGGTACTCGGAGTATCCCG (ssDNA) [39 mer ssDNA] displayed a Kd in series [5] of 270 ± 13 nM.

B3: 16 bp duplex (dsDNA)
DNA 1: CCCGGCGTGCGGCCCG
DNA 2: CGGGCCGCACGCCGGG
With B3, the Kd in series [6] is 710 ± 20 nM.
With UUUUUUUUUUUUUUUUUUUUUUUUUUUUUU (ssRNA) [30U], the affinity in series [7], expressed as Kd, was 900 ± 38 nM.
